Experimental data as given in PMC10711550.
Blank lines part the entries; values can stand above or below the substance they belong to.

Columns and labels:
[1] = biological target: p300 full length (human) (UniProt Q09472); experiment: EMSA; settings: EMSA: 10 mM HEPES-NaOH pH 7.3, 50 mM KCl, 5 mM MgCl2, 0.5 mM DTT, 5% glycerol, 0.5 mg/ml BSA; 1 h incubation; 1 nM DNA (Fig 2B); 4% native PAGE, 0.5x TBE, 4 C
[2] = biological target: SOX2DBD (human) (UniProt P48431); experiment: EMSA; settings: EMSA: 10 mM HEPES-NaOH pH 7.3, 50 mM KCl, 5 mM MgCl2, 0.5 mM DTT, 5% glycerol, 0.5 mg/ml BSA; 1 h incubation; 1 nM DNA (Fig 2B); 4% native PAGE, 0.5x TBE, 4 C
[3] = biological target: SOX2 mutant E78A (human) (UniProt P48431)
[4] = biological target: SOX2 mutant E86A (human) (UniProt P48431)
[5] = biological target: full-length human SOX2 (human) (UniProt P48431); experiment: BLI; SOX2 (0.2 mg/ml) immobilised on an AR2G chip, quenched with 1 M ethanolamine; p300 fragments in PBS; global fit to a 1:1 binding model (BLItz Pro v.1.2.1.5)
Chain of full-length human SOX2 (human) (P48431 whole entry, the tested form may be a part): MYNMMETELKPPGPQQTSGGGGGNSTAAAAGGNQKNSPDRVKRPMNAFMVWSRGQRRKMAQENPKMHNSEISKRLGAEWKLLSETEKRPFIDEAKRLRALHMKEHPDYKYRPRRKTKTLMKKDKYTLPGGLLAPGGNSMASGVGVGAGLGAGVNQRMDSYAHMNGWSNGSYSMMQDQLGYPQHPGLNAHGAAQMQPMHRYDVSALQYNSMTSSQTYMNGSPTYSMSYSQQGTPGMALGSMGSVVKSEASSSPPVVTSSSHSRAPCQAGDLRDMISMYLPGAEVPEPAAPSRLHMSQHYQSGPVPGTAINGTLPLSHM

Chain of SOX2DBD (human) (P48431 39-127): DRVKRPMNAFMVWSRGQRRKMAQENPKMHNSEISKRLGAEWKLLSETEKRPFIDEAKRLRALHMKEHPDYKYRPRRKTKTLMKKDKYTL
Chain of SOX2 mutant E86A (human) (P48431 whole entry E86A, the tested form may be a part): as the sequence (P48431 whole entry, the tested form may be a part) above, with E86A counted along it
Chain of SOX2 mutant E78A (human) (P48431 whole entry E78A): as the sequence (P48431 whole entry, the tested form may be a part) above, with E78A counted along it
Chain of p300 full length (human) (Q09472 whole entry): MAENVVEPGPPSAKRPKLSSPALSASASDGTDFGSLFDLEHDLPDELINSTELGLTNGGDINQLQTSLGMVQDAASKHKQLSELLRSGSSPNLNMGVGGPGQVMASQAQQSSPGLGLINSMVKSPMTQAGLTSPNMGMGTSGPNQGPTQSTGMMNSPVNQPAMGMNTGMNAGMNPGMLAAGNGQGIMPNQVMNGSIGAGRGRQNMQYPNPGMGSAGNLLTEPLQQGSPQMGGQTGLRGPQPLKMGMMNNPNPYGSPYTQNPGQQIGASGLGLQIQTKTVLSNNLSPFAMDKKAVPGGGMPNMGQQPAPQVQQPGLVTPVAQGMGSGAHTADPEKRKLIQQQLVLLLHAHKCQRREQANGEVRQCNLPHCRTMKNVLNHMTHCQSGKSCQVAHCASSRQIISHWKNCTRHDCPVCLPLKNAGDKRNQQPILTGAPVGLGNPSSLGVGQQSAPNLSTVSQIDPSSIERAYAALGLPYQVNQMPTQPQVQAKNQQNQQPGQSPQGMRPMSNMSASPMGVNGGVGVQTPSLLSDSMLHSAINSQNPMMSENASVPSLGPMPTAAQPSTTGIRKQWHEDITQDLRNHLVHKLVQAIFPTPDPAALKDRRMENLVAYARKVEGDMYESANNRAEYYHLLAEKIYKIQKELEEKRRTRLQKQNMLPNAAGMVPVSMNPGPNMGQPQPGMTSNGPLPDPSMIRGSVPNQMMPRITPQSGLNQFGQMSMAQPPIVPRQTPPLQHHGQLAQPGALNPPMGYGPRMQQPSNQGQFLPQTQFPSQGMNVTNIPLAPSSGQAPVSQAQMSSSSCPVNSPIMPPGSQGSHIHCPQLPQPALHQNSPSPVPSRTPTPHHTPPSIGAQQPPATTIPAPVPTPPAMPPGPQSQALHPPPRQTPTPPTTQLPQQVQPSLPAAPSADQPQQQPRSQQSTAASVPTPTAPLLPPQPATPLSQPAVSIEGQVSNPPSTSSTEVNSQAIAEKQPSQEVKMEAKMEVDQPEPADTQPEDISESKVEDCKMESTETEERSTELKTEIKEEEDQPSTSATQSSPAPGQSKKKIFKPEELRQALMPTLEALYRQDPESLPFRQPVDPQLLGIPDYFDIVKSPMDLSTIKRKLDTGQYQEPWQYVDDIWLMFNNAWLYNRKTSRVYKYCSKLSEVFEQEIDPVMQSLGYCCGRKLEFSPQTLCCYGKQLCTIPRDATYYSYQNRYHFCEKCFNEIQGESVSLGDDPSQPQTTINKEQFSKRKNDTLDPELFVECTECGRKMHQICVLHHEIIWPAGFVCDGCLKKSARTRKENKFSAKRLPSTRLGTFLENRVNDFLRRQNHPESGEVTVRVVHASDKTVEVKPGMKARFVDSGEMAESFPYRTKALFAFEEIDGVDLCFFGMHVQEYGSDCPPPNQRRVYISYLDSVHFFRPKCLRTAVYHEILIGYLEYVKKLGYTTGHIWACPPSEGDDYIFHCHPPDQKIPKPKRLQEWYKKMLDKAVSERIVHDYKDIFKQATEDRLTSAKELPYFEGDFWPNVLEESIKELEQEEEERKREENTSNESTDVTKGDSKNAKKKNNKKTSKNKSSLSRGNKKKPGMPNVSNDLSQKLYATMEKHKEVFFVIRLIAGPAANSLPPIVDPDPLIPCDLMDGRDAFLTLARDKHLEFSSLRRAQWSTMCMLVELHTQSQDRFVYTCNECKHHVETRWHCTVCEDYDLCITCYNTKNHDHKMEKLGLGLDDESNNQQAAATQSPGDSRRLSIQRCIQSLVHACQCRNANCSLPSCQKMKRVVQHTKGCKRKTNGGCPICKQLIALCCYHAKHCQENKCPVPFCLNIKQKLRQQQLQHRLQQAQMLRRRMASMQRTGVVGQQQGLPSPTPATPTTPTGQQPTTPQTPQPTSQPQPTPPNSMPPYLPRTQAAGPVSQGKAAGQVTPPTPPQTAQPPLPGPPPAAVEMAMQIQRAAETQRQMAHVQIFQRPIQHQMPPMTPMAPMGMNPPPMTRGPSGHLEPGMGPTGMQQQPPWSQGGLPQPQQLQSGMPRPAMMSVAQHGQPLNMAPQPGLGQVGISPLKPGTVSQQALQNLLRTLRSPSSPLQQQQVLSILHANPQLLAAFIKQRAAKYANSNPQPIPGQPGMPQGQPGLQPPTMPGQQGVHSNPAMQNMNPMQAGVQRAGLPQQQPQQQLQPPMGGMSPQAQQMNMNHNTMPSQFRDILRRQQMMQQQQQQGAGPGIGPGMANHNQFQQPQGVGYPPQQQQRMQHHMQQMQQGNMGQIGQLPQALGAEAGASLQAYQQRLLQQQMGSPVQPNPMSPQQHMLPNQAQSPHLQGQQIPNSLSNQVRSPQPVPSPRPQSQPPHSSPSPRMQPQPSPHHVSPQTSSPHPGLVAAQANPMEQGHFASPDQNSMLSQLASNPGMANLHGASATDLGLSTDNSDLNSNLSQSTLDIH

Substance: GCGGTCCATTATTCCAATTGATTTCAATTCTATTGATAGTCAGATTGAGAGACTCAGGTGCCTCTTTTGAATATCTTCTTTTGTTGGGGCCGCACACCCTGAGAGGTGGTGGAAGTCTGAGTTAGACTTTAGCCTGATCTACATAGCAAGTTCCGGGACATGCAAGGACTAC (double strand) [SM]
binding [1]: no binding
binding signal [2]: 71 % bound

Substance: GTAGTCCTTGCATGTCCCGGAACTTGCTATGTAGATCAGGCTAAAGTCTAACTCAGACTTCCACCACCTCTCAGGGTGTGCGGCCCCAAGATAAGAAGATATTCAAAAGAGGCACCTGAGTCTCTCAATCTGACTATCAATAGAATTGAAATCAATTGGAATAATGGACCGC (double strand) [dSM]
binding [2]: no binding

luciferase activity of pGL3-SM in cells expressing the SOX2 mutant, relative to wild-type SOX2 [3]: 30%
luciferase activity of pGL3-SM in cells expressing the SOX2 mutant, relative to wild-type SOX2 [4]: 30%
Substance: full-length p300 (Protein One), Q09472 1-2414

Kd [5]: 2680 nM
koff [5]: 0.0469 s⁻¹
kon [5]: 12300 M⁻¹ s⁻¹
Substance: p300 KIX domain (aa 566-646) (from UniProt Q09472 566-646) (domain or fragment)
